Measurements: the supplement of paper PMC7877785
± gives the uncertainty stated by the source.

Assay: self-splicing fitness, log relative to wild type (ln ratio); higher = more splicing; Tetrahymena group I intron in knt gene, E. coli kanamycin selection, DiMSum; sequences stand for … in CUCUCU…GGAGGGAAAAGUUAUCAGGCAUGCACCUGGUAGCUAGUCUUUAAACCAAUAGAUUGCAUCGGUUUAAAAGGCAAGACCGUCAAAUUGCGGGAAAGGGGUCAACAGCCGUUCAGUACCAAGUCUCAGGGGAAACUUUGAGAUGGCCUUGCAAAGGGUAUGGUAAUAAGCUGACGGACAUGGUCCUAACCACGCAGCCAAGUCCUAAGUCAACAGAUCUUCUGUUGAUAUGGAUGCAGUUCACAGACUAAAUGUCGGUCGGGGAAGAUGUAUUCUUCUCAUAAGAUAUAGUCGGACCUCUCCUUAAUGGGAGCUAGCGGAUGAAGUGAUGCAACACUGGAGCCGCUGGGAACUAAUUUGUAUGCGAAAGUAUAUUGAUUAGUUUUGGAGUACUCGUGGUCG
How it was run: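 Six replicate transformations of E. coli BL21(DE3) with a pET-22b(+) library were grown overnight at 37°C or 30°C. The library randomised all eight P1ex-region intron nucleotides, the intron lying in the knt kanamycin-resistance gene, and plates were LB agar with or without 25 μg/mL kanamycin plus 100 μg/mL carbenicillin, 50 μM IPTG and 0.2% rhamnose. Pooled colonies were amplicon-sequenced on an Illumina HiSeq 2500, and fitness is the DiMSum error-weighted combination of wild-type-normalised replicate fold changes, kanamycin versus none.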

AAAAAGCAAUAUUACGCCCU
self-splicing fitness (ln) (30 °C): 0.324 ± 0.1
self-splicing fitness (ln) (37 °C): 0.202 ± 0.12

AGAGAGCAAUAUUACGCUAG
self-splicing fitness (ln) (30 °C): -2.84 ± 0.28
self-splicing fitness (ln) (37 °C): -2.91 ± 0.38

CCGUAGCAAUAUUACGGUAG
self-splicing fitness (ln) (30 °C): -3.48 ± 0.2
self-splicing fitness (ln) (37 °C): -2.97 ± 0.24

GUCUAGCAAUAUUACGGAGC
self-splicing fitness (ln) (30 °C): -1.04 ± 0.15
self-splicing fitness (ln) (37 °C): -1.02 ± 0.18

GCCCAGCAAUAUUACGAAAU
self-splicing fitness (ln) (30 °C): -1.7 ± 0.068
self-splicing fitness (ln) (37 °C): -1.36 ± 0.089

GCAUAGCAAUAUUACGUGAA
self-splicing fitness (ln) (30 °C): -0.877 ± 0.067
self-splicing fitness (ln) (37 °C): -0.528 ± 0.07

ACGUAGCAAUAUUACGAUGU
self-splicing fitness (ln) (30 °C): -2.37 ± 0.14
self-splicing fitness (ln) (37 °C): -1.6 ± 0.17

AAGUAGCAAUAUUACGUAUA
self-splicing fitness (ln) (30 °C): -1.96 ± 0.13
self-splicing fitness (ln) (37 °C): -2.15 ± 0.14

CUCAAGCAAUAUUACGUAGU
self-splicing fitness (ln) (30 °C): -3.43 ± 0.17
self-splicing fitness (ln) (37 °C): -1.91 ± 0.14

CCCAAGCAAUAUUACGUAGU
self-splicing fitness (ln) (30 °C): -3.65 ± 0.2
self-splicing fitness (ln) (37 °C): -1.93 ± 0.14

CCAUAGCAAUAUUACGUGGA
self-splicing fitness (ln) (30 °C): -2.2 ± 0.14
self-splicing fitness (ln) (37 °C): -2.16 ± 0.18

GGCCAGCAAUAUUACGGGCU
self-splicing fitness (ln) (30 °C): -2.4 ± 0.2
self-splicing fitness (ln) (37 °C): -3.16 ± 0.47

AUCCAGCAAUAUUACGACAC
self-splicing fitness (ln) (30 °C): -0.468 ± 0.11
self-splicing fitness (ln) (37 °C): -0.488 ± 0.16

GGUUAGCAAUAUUACGCUCG
self-splicing fitness (ln) (30 °C): -0.367 ± 0.2
self-splicing fitness (ln) (37 °C): 0.204 ± 0.28

AUACAGCAAUAUUACGAGAU
self-splicing fitness (ln) (30 °C): -3.35 ± 0.14
self-splicing fitness (ln) (37 °C): -1.18 ± 0.11

UGCGAGCAAUAUUACGUACA
self-splicing fitness (ln) (30 °C): -2.18 ± 0.2
self-splicing fitness (ln) (37 °C): 0.427 ± 0.21

GUAUAGCAAUAUUACGUAAU
self-splicing fitness (ln) (30 °C): -2.43 ± 0.14
self-splicing fitness (ln) (37 °C): -0.699 ± 0.14

UCCAAGCAAUAUUACGCAUA
self-splicing fitness (ln) (30 °C): -1.07 ± 0.096
self-splicing fitness (ln) (37 °C): -0.213 ± 0.087

CAUUAGCAAUAUUACGGAGC
self-splicing fitness (ln) (30 °C): -2.94 ± 0.4
self-splicing fitness (ln) (37 °C): -2.04 ± 0.23

AGGAAGCAAUAUUACGGAAA
self-splicing fitness (ln) (30 °C): -2.92 ± 0.23
self-splicing fitness (ln) (37 °C): -2.26 ± 0.18

AUCAAGCAAUAUUACGCCUC
self-splicing fitness (ln) (30 °C): -2.77 ± 0.23
self-splicing fitness (ln) (37 °C): -1.6 ± 0.21

GGCCAGCAAUAUUACGGCCA
self-splicing fitness (ln) (30 °C): -2.42 ± 0.16
self-splicing fitness (ln) (37 °C): -1.03 ± 0.17

CUGUAGCAAUAUUACGGGCU
self-splicing fitness (ln) (30 °C): -4.31 ± 0.3
self-splicing fitness (ln) (37 °C): -3.2 ± 0.29

UCAAAGCAAUAUUACGGGUA
self-splicing fitness (ln) (30 °C): -0.981 ± 0.096
self-splicing fitness (ln) (37 °C): 0.505 ± 0.093

ACGGAGCAAUAUUACGAGGA
self-splicing fitness (ln) (30 °C): -2.89 ± 0.27
self-splicing fitness (ln) (37 °C): -2.92 ± 0.43

AUCGAGCAAUAUUACGCAGG
self-splicing fitness (ln) (30 °C): -3.53 ± 0.28
self-splicing fitness (ln) (37 °C): -2.77 ± 0.22

UAGGAGCAAUAUUACGUAAG
self-splicing fitness (ln) (30 °C): -3.22 ± 0.16
self-splicing fitness (ln) (37 °C): -2.01 ± 0.16

CGCUAGCAAUAUUACGGGCG
self-splicing fitness (ln) (30 °C): -2.95 ± 0.28
self-splicing fitness (ln) (37 °C): -2.74 ± 0.44

UUCAAGCAAUAUUACGAGCC
self-splicing fitness (ln) (30 °C): -2.64 ± 0.32

UGUCAGCAAUAUUACGGUCG
self-splicing fitness (ln) (30 °C): -0.443 ± 0.068
self-splicing fitness (ln) (37 °C): 0.559 ± 0.11

GUCUAGCAAUAUUACGUAAU
self-splicing fitness (ln) (30 °C): -0.317 ± 0.1
self-splicing fitness (ln) (37 °C): 0.597 ± 0.12

ACAAAGCAAUAUUACGUUCG
self-splicing fitness (ln) (30 °C): -1.28 ± 0.049
self-splicing fitness (ln) (37 °C): -0.0172 ± 0.067

CGUUAGCAAUAUUACGGUGG
self-splicing fitness (ln) (30 °C): -0.853 ± 0.056
self-splicing fitness (ln) (37 °C): -0.115 ± 0.079

GCGCAGCAAUAUUACGCUGA
self-splicing fitness (ln) (30 °C): -1.16 ± 0.12
self-splicing fitness (ln) (37 °C): -0.667 ± 0.1

ACCAAGCAAUAUUACGCAUG
self-splicing fitness (ln) (30 °C): -3.75 ± 0.11
self-splicing fitness (ln) (37 °C): -2.2 ± 0.11

GGCCAGCAAUAUUACGGACA
self-splicing fitness (ln) (30 °C): -0.666 ± 0.12
self-splicing fitness (ln) (37 °C): -1.01 ± 0.17

AGUUAGCAAUAUUACGUCAU
self-splicing fitness (ln) (30 °C): -2.48 ± 0.1
self-splicing fitness (ln) (37 °C): -1.81 ± 0.13
